What was measured:
Experiment in all cases: SPR, antibody captured, C2 as analyte;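 further: biacore SPR at 37 °C, anti-C2 mAbs captured via goat anti-human IgG on CM5 chips, double-referenced sensorgrams fit to a 1:1 kinetic or steady-state model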
[1] = target: T1, human C2 A326S (human, UniProt P06681 21-752)
T1 sequence: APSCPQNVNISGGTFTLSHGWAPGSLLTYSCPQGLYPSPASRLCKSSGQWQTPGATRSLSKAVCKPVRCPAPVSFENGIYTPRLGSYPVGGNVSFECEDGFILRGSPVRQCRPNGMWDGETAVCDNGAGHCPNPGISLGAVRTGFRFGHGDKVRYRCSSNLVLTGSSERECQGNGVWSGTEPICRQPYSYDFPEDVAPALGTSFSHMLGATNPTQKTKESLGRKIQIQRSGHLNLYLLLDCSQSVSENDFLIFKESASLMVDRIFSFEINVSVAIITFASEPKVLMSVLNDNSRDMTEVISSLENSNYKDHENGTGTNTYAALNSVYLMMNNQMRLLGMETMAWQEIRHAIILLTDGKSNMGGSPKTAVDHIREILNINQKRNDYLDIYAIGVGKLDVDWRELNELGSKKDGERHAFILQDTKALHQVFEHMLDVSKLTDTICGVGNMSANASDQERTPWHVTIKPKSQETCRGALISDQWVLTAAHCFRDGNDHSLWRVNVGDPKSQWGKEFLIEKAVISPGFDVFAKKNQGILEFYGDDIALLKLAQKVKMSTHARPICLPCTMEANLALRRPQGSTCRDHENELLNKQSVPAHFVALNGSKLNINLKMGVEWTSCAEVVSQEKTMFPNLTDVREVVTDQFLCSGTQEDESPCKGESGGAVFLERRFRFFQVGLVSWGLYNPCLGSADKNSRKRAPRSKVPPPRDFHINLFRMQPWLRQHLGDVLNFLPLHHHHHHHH

[2] = target: T2, human C2 E490A (human, UniProt P06681 21-752)
T2 sequence: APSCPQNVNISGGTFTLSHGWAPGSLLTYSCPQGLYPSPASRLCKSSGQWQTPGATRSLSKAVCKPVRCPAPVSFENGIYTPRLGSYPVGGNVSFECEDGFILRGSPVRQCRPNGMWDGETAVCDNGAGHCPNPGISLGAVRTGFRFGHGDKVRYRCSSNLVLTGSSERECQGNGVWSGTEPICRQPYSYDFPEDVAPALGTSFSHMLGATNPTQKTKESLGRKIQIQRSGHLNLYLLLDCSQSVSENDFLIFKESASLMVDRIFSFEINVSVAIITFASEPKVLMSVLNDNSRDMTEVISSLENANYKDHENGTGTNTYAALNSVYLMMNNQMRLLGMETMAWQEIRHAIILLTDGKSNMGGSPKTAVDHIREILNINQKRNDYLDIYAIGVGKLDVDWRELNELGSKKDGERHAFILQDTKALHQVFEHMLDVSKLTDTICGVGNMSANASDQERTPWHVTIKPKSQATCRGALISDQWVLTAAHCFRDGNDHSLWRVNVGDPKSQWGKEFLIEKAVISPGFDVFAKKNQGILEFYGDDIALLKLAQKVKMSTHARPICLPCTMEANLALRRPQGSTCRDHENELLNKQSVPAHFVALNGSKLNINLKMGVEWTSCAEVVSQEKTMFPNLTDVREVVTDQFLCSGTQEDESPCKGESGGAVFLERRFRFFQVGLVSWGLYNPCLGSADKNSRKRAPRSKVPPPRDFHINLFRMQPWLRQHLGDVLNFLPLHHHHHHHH

[3] = target: T3, human C2 S428A (human, UniProt P06681 21-752)
T3 sequence: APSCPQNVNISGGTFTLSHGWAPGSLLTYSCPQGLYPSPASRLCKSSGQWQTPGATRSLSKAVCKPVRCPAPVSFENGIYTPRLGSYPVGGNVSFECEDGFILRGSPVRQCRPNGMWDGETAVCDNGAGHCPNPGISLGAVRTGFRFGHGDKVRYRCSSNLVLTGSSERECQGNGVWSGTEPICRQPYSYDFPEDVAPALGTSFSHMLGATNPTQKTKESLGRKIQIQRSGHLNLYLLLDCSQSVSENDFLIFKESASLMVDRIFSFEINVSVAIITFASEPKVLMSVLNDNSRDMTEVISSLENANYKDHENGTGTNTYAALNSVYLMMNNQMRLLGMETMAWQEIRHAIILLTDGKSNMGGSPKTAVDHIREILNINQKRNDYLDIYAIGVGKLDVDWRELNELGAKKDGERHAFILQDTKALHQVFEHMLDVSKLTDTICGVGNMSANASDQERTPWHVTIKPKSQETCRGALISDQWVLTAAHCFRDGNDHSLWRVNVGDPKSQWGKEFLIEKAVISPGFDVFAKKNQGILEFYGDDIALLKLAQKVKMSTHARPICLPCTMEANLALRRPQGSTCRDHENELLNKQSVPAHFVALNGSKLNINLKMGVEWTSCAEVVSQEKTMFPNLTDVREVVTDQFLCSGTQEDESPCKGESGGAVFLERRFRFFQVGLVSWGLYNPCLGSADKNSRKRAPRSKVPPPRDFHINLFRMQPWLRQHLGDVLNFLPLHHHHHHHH

[4] = target: T4, human C2 R493A (human, UniProt P06681 21-752)
T4 sequence: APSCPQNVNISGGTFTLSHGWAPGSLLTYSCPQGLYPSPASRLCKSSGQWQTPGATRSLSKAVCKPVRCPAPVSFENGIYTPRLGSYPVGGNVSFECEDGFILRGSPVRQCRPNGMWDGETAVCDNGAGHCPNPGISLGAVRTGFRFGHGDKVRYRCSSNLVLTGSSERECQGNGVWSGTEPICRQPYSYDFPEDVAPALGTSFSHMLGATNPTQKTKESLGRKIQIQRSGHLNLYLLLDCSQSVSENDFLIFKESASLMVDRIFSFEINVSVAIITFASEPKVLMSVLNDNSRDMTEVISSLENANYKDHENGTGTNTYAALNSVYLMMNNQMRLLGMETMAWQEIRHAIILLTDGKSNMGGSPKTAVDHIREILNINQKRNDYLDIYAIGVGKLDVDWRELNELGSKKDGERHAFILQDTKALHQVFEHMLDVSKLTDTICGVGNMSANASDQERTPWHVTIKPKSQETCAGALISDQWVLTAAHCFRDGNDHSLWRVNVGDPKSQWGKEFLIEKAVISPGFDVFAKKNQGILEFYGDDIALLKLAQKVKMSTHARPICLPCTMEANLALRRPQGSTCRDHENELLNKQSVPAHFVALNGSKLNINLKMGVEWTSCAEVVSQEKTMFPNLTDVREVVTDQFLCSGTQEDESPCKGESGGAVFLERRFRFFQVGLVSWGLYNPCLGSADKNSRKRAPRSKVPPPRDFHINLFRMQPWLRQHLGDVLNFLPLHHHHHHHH

B1: RF16-226 (antibody, human IgG4 S228P, lambda)
heavy: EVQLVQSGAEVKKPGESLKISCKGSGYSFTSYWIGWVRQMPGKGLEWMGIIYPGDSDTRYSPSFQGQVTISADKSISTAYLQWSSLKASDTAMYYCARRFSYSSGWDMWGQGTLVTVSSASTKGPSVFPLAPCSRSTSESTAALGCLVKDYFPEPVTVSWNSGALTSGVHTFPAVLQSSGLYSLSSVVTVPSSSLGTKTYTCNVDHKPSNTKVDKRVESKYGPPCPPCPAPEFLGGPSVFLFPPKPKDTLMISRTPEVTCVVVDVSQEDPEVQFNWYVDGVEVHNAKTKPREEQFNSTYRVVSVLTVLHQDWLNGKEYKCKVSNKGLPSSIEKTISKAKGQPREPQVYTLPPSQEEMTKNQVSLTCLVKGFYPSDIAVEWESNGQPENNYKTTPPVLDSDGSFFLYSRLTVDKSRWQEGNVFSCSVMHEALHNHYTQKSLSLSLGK
light: SYELTQPPSVSVSPGQTARITCSGDALTSKYVAWYQQKSGLAPLLVIYEDTRRPSGIPAKFSGSSSGSVATLTISGAHGDDEADYYCYSTDASGHQRVFGGGTKLTVLSQPKAAPSVTLFPPSSEELQANKATLVCLISDFYPGAVTVAWKADGSPVKAGVETTKPSKQSNNKYAASSYLSLTPEQWKSHRSYSCQVTHEGSTVEKTVAPTECS
notes: pH-dependent anti-C2 antibody from a phage display library; also called WT
Kd [1]: 13.2 nM | Kd [2]: 15.6 nM | Kd [3]: 18.8 nM | Kd [4]: 24.3 nM
